Assay results from publication PMC314469, “Protein Interaction Networks by Proteome Peptide Scanning” (PLoS Biology, 2004).

Biological target: T1, GST-Abp1 SH3 domain (S. cerevisiae, UniProt P15891 532-592)
T1 construct: SH3 domain of Abp1, S. cerevisiae
T1 sequence (looked up): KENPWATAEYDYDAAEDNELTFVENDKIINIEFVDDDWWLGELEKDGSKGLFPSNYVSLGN
Assay: SPR; BIAcoreX; GST-fused SH3 domains (and GST as control) amine-coupled to CM5 chips; peptides flowed at 25°C in 10 mM HEPES, 150 mM NaCl, 3.4 mM EDTA, 0.005% P20, pH 7.4, 15 μl/min, 500 μM to 65 nM; steady-state model
Conditions: both partners purified

- Kd: ≥ 100 µM
B1: Ynl094w peptide RRPPPPPIPSTQKP (peptide)
peptide: RRPPPPPIPSTQKP
notes: stretch of Ynl094w, S. cerevisiae; also called tetradecapeptide in the Ynl094w protein
